Measured values as given in US20080317769A1, “Vaccine Composition Comprising Alpha-Galactosylceramide as an Adjuvant For Intranasal Administration” (priority 2005, published 2008).

Test system: EG7 tumor cells
Assay: EG7 tumor challenge after intranasal immunization with OVA and αGalCer
Assay type: in vivo
Settings: C57BL/6 mice
Description: To confirm whether αGalCer could be used as a nasal vaccine adjuvant inducing anticancer activity, C57BL/6 mice were immunized with 100 μg of OVA alone or together with αGalCer (0.125, 0.5, 2.0 μg) by the intranasal administration three times at one-week intervals. Two weeks after the final immunization, 3×10^6 EG7 tumor cells were subcutaneously inoculated in the left flank of the immunized mice. On the 14th day of the inoculation, the mice were sacrificed and the palpable tumors were weighed.

B1: OVA: model antigen given intranasally at 100 μg alone or together with αGalCer (protein, UniProt P01012 2-386, looked up)
Ovalbumin: GSIGAASMEFCFDVFKELKVHHANENIFYCPIAIMSALAMVYLGAKDSTRTQINKVVRFDKLPGFGDSIEAQCGTSVNVHSSLRDILNQITKPNDVYSFSLASRLYAEERYPILPEYLQCVKELYRGGLEPINFQTAADQARELINSWVESQTNGIIRNVLQPSSVDSQTAMVLVNAIVFKGLWEKAFKDEDTQAMPFRVTEQESKPVQMMYQIGLFRVASMASEKMKILELPFASGTMSMLVLLPDEVSGLEQLESIINFEKLTEWTSSNVMEERKIKVYLPRMKMEEKYNLTSVLMAMGITDVFSSSANLSGISSAESLKISQAVHAAHAEINEAGREVVGSAEAGVDAASVSEEFRADHPFLFCIKHIATNAVLFFGRCVSP
mice with tumor masses (100 μg OVA alone intranasal, 3×10^6 EG7 cells s.c., day 14): all mice
tumor weight compared with vehicle alone (OVA alone through the nasal cavity, p<0.05): significantly heavy
